From patent US20080020964A1, “Test System for the Discovery of Substances for the Promotion of Neuraxonal Growth” (priority 2003, published 2008)

B1: hnRNP-R: heterogeneous nuclear ribonucleic protein R, epitope-tagged wildtype form overexpressed from an expression plasmid (protein, UniProt O43390 2-633, looked up)
Heterogeneous nuclear …: ANQVNGNAVQLKEEEEPMDTSSVTHTEHYKTLIEAGLPQKVAERLDEIFQTGLVAYVDLDERAIDALREFNEEGALSVLQQFKESDLSHVQNKSAFLCGVMKTYRQREKQGSKVQESTKGPDEAKIKALLERTGYTLDVTTGQRKYGGPPPDSVYSGVQPGIGTEVFVGKIPRDLYEDELVPLFEKAGPIWDLRLMMDPLSGQNRGYAFITFCGKEAAQEAVKLCDSYEIRPGKHLGVCISVANNRLFVGSIPKNKTKENILEEFSKVTEGLVDVILYHQPDDKKKNRGFCFLEYEDHKSAAQARRRLMSGKVKVWGNVVTVEWADPVEEPDPEVMAKVKVLFVRNLATTVTEEILEKSFSEFGKLERVKKLKDYAFVHFEDRGAAVKAMDEMNGKEIEGEEIEIVLAKPPDKKRKERQAARQASRSTAYEDYYYHPPPRMPPPIRGRGRGGGRGGYGYPPDYYGYEDYYDDYYGYDYHDYRGGYEDPYYGYDDGYAVRGRGGGRGGRGAPPPPRGRGAPPPRGRAGYSQRGAPLGPPRGSRGGRGGPAQQQRGRGSRGSRGNRGGNVGGKRKADGYNQPDSKRRQTNNQQNWGSQPIAQQPLQQGGDYSGNYGYNNDNQEFYQDTYGQQWK
modifications: epitope tag
B2: hnRNP-Q: heterogeneous nuclear ribonucleic protein Q, epitope-tagged wildtype form overexpressed from an expression plasmid (protein, UniProt O60506 2-623, looked up)
Heterogeneous nuclear …: ATEHVNGNGTEEPMDTTSAVIHSENFQTLLDAGLPQKVAEKLDEIYVAGLVAHSDLDERAIEALKEFNEDGALAVLQQFKDSDLSHVQNKSAFLCGVMKTYRQREKQGTKVADSSKGPDEAKIKALLERTGYTLDVTTGQRKYGGPPPDSVYSGQQPSVGTEIFVGKIPRDLFEDELVPLFEKAGPIWDLRLMMDPLTGLNRGYAFVTFCTKEAAQEAVKLYNNHEIRSGKHIGVCISVANNRLFVGSIPKSKTKEQILEEFSKVTEGLTDVILYHQPDDKKKNRGFCFLEYEDHKTAAQARRRLMSGKVKVWGNVGTVEWADPIEDPDPEVMAKVKVLFVRNLANTVTEEILEKAFSQFGKLERVKKLKDYAFIHFDERDGAVKAMEEMNGKDLEGENIEIVFAKPPDQKRKERKAQRQAAKNQMYDDYYYYGPPHMPPPTRGRGRGGRGGYGYPPDYYGYEDYYDYYGYDYHNYRGGYEDPYYGYEDFQVGARGRGGRGARGAAPSRGRGAAPPRGRAGYSQRGGPGSARGVRGARGGAQQQRGRGVRGARGGRGGNVGGKRKADGYNQPDSKRRQTNNQNWGSQPIAQQPLQGGDHSGNYGYKSENQEFYQDTFGQQWK
modifications: epitope tag

Assays:
PC12 cells [1] = assay: Neurite growth in PC12 cells transiently transfected with Smn or hnRNP-R and -Q; format: cell-based, rat; conditions: transient overexpression, differentiation with 50 ng/ml NGF for three days
Method: Rat pheochromocytoma cells (PC12) were cultivated in DMEM (Invitrogen, Carlsbad, Calif., USA)+10% horse serum+5% fetal calf serum+antibiotics. Before the transfection, the cells were plated out in a high density in 24-well culture dishes and transfected with 1 μg plasmid DNA (Lipofectamine 2000; Invitrogen, Carlsbad, Calif., USA). For this purpose, expression plasmids were used, into which wildtype forms marked with epitope tags (HA tag of FLAG tag) or mutated versions of Smn, hnRNP-R or hnRNP-Q have been cloned. On the day after the transfection, the cells were plated out in 35 mm culture dishes on glass plates coated with poly-DL-or nithine in a density of 1,000 cells/cm^2. As a differentiation medium, DMEM+2% horse serum and 1% fetal calf serum+50 ng/ml NGF+antibiotics were used. After three days, the cells were fixed and stained. The PC12 cells were fixed with 4% paraformaldehyde (PFA) in buffered common salt solution (PBS). […] After washing again with TBS-T, the cells were embedded in Mowiol and evaluated at the fluorescence microscope or the confocal microscope as mentioned above.

PC12 cells [2] = assay: Neurite growth in Smn or hnRNP-R or -Q overexpressing stable PC12 cell lines; format: cell-based, rat; conditions: differentiated seven days
Method: For preparing stable cell lines, PC12 cells were cultivated as described above, and transfected with expression vectors for the wildtype form or mutated Smn, hnRNP-R or hnRNP-Q. Thereafter, the cells were selected in a small cell density with the antibiotic G418 with regard to their neomycin resistance. Individual clones were tested by Western blot analysis for their stable expression of the constructs to be expressed. For measuring the neurite length, the cells were plated out as described above on coated glass plates, differentiated by the addition of differentiation medium and fixed, stained after seven days, and the neurite growth was quantified as described above.

[3] = system: 3′ untranslated region of β-actin mRNA; assay: Binding of radioactively marked β-actin mRNA to immunoprecipitated HA-marked hnRNP-R (filter, PSL); conditions: HA-marked protein from transfected HEK 293 cells, 32P-marked RNA, 30 minutes at room temperature
Method: The untranslated 3′ regions of β-actin from the stop codon to the poly-A sequence or the so-called zipcode region (Kislauskis et al., 1994) were amplified by RT-PCR and cloned into a plasmid with the binding site for the T7 RNA polymerase (pTZ19). Optionally, a poly-A tail of 30 nucleotides was added. (Used primers:
actinUTRfwd […], actinUTRpolyAfullrev, ATGAGAATTC-T(30)-[…], actinUTRpolyAziprev, ATGA-GAATTC-T(30)-[…], actinUTRfullrev, […]). The plasmids were linearized by digestion with EcoRI at the 3′ end, and were purified. […]
A cell line from human embryonic kidney cells (HEK 293) was transfected with expression constructs marked by HA epitope for the wildtype forms or mutated versions of Smn or hnRNP-R. After 48 hours, the cells were lysated in lysis buffer (25 mM Tris-HCl pH=8.0, 137 mM NaCl, 2 mM EGTA, 2 mM EDTA, 10% glycerol, 1% Triton X-100, 0.05% β-mercaptoethanol and protease inhibitors; Roche, Bale, Switzerland), and the HA-marked proteins were purifies by immunoprecipitation with anti-HA agarose (HA.11, Covance, Denver, Pa., USA). […] These filters were exposed with phosphoimager plates (BAS-2500, Photo Film Europe GmbH, Duesseldorf, Germany), and the bound radioactivity was measured as photo-stimulating luminescence (PSL) by means of the AIDA software package (Raytest, Straubenhardt, Germany).

PC12 cell lines = assay: β-actin content in neurites and growth cones of cultivated PC12 cell lines (immunostaining); format: cell-based, rat; conditions: stable PC12 cell lines, anti-actin / anti-β-actin antibodies
Method: The cultivation of PC12 cell lines and the fixation, staining and evaluation was performed as described above. As antibodies, monoclonal anti-Smn antibodies (BD Biosciences, Lexington, Ky., USA, 1:500), rabbit anti-hnRNP-R antibodies (Rossoll et al., 2002; 1:1,000), anti-actin (Roche, Bale, Switzerland, 1:200) and β-actin (Abcam, Cambridge, UK; 1:1,000) were used. Since in neurites preferably β-actin is localized, the results are similar for anti-actin and specifically anti-β-actin.

Row | Molecule | effect on neurite growth (PC12 cells [1]) | neurite length versus control cell lines (untransfected or empty plasmid) (PC12 cells [2]) | binding to the 3′ untranslated region of β-actin mRNA [3] | β-actin staining in the growth zones of the neurites (PC12 cell lines)
1 | SmnY272C: Smn with a point mutation, no interaction with hnRNP-R, also found in SMA patients | no stimulating effect | – | – | –
2 | B1 | – | three times longer neurites | bind to the 3′ untranslated region of β-actin mRNA | strong concentration of β-actin
3 | B2 | – | three times longer neurites | – | –
